# Data reported in patent US20040132121A1, “Method of identifying antibacterial compounds” (priority 2000, published 2004).
# Key:
# [1] = target: E. coli β fused to the B42 transcriptional activation domain (plasmid pB42ADβ) (Escherichia coli) (UniProt P0A988)
# [2] = target: Escherichia coli β subunit of DNA Polymerase III (β protein) (Escherichia coli) (UniProt P0A988)
# Chain of LexA-DinB (307-317) fusion (plasmid pLexADinB (307-317)) (P0A7C2 other isoform, or with tags, fused parts or gaps): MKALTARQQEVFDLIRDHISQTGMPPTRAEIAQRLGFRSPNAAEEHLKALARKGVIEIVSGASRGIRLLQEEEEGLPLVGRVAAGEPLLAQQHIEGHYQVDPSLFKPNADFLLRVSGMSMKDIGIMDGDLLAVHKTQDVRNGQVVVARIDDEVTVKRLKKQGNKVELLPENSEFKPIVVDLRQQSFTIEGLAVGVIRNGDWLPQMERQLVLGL
# Chain of LexA-MutS (802-818) fusion (plasmid pLexAMutS(802-818)) (P0A7C2 other isoform, or with tags, fused parts or gaps): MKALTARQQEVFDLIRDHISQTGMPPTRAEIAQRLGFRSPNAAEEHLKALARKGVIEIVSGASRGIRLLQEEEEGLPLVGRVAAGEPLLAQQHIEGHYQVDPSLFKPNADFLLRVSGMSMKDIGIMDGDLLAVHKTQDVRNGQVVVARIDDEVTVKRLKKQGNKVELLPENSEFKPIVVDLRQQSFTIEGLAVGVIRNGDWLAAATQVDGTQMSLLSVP
# Chain of LexA-PolB (779-783) fusion (plasmid pLexAPolB(779-783)) (P0A7C2 other isoform, or with tags, fused parts or gaps limits assumed): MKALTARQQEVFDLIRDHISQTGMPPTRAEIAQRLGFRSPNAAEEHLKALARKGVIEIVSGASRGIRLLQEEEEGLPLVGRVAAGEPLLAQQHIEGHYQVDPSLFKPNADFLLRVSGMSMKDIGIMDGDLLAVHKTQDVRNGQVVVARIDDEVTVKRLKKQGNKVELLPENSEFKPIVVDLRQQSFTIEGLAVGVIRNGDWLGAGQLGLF
Substance,β-gal activity Miller units (yeast two-hybrid; interact with β: +) [1] [Miller units],also measured
LexA-MutS (802-818) fusion (plasmid pLexAMutS(802-818)) (from UniProt P0A7C2 1-202),43.8,–
pLexA,–,β-gal activity Miller units (yeast two-hybrid; interact with β: -) [1]: 1.5 Miller units
LexA-DnaE (736-991) fusion (from UniProt P0A7C2 1-202; P10443 736-991),135,–
LexA-DnaE (542-735) fusion (from UniProt P0A7C2 1-202; P10443 542-735),–,β-gal activity Miller units (yeast two-hybrid; interact with β: -) [1]: 1.1 Miller units
LexA-DinB (307-317) fusion (plasmid pLexADinB (307-317)) (from UniProt P0A7C2 1-202),75.1,–
pep18 Ac-DLF-NH2 (peptide),–,IC50 [2]: 135 µM
LexA-DnaE (896-919) fusion (plasmid pLexADnaE (896-919)) (from UniProt P0A7C2 1-202; P10443 896-919),–,β-gal activity Miller units (yeast two-hybrid; interact with β: -) [1]: 0.1 Miller units
LexA-PolB (779-783) fusion (plasmid pLexAPolB(779-783)) (from UniProt P0A7C2 1-202),69.6,–
LexA-DnaE (542-991) fusion (plasmid pLexADnaE (542-991)) (from UniProt P0A7C2 1-202; P10443 542-991),60.1,–
LexA-UmuC (351-365) fusion (plasmid pLexAUmuC(351-365)) (from UniProt P0A7C2 1-202),94.8,–
LexA-DnaE (908-931) fusion (plasmid pLexADnaE (908-931)) (from UniProt P0A7C2 1-202; P10443 908-931),32.3,–
